# Source: PMC4215112
# B1: Bet v 1.0101 peptide I56 to D69 [modified: biotin at the N-terminus, before the additional glycine; biotin at the N-terminus, before the additional glycine] [birch] / M0418 scFv-Fcε fusion protein [human] (parent)
# chain 1: QVQLVQSGAEVKKPGESLKISCKGSEYSFPNYWIAWVRQMPGKGLEWMGMIYPGDSDTRYSPSFQGQVNISADKSSRTAFLEWSSLKASDSATYFCARLGGQLWNSYYYYYYMDVWGKGTTVTVSSGGGGSGGGGSGGGGSSYELTQPPSASGTPGQRVTISCSGSSSNIGGNTVNWYQQVPGTAPRLLIYKNNQRPSGVPDRFSGSKSGTSASLAISGLRSEDEADYYCEAWDGGLRGGVFGGGTKLTVLGDYKDDDDKAAA
# chain 2: GISFPEGFPFKYVKDG
# Variants of: B1
# Assay: ELISA
# Conditions: with M0418 scFv-Fcε fusion protein [human], read off a plot
screen value (10X dilution) [%],screen value (100X dilution) [%],Variant
-0,-0,chain 2 GISFPEGFPFKYVKAG [chain 2 D15A]
-0,38,chain 2 GISFPEGFPAKYVKDG [chain 2 F10A]
-0,-0,chain 2 GISFPEGFPFKYVADG [chain 2 K14A]
95,98,chain 2 GISFPEGFAFKYVKDG [chain 2 P9A]
95,98,chain 2 GISFPEGFPFAYVKDG [chain 2 K11A]
5,76,chain 2 GASFPEGFPFKYVKDG [chain 2 I2A]
-0,14,chain 2 GISFPAGFPFKYVKDG [chain 2 E6A]
-0,9,chain 2 GIAFPEGFPFKYVKDG [chain 2 S3A]
96,98,chain 2 GISFAEGFPFKYVKDG [chain 2 P5A]
-0,37,chain 2 GISAPEGFPFKYVKDG [chain 2 F4A]
-0,-0,chain 2 GISFPEGFPFKYAKDG [chain 2 V13A]
95,98,chain 2 GISFPEGAPFKYVKDG [chain 2 F8A]
43,83,chain 2 GISFPEAFPFKYVKDG [chain 2 G7A]
3,79,chain 2 GISFPEGFPFKAVKDG [chain 2 Y12A]
